Source: the supplement of paper PMC12855868

B1: library; numbered along this chain (parent)
chain: MAAAGGARLLRAASAVLGGPAGRWLHHAGSRAGSSGLLRNRGPGGSAEASRSLSVSARARSSSEDKITVHFINRDGETLTTKGKVGDSLLDVVVENNLDIDGFGACEGTLACSTCHLIFEDHIYEKLDAITDEENDMLDLAYGLTDRSRLGCQICLTKSMDNMTVRVPETVADARQSIDVGKTS

Variants of: B1
Assay: scaled log2 fold change in cell abundance, elesclomol vs control (0 = silent mean, 1 = nonsense mean) (scaled log2 ratio); higher = higher viability under elesclomol (loss of FDX1 cuproptosis function)
Conditions: glucose 10 mM
Experimental: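 Deep mutational scan of full-length human FDX1: a pooled saturation-mutagenesis ORF library (every residue 2-184 mutated to all 19 amino acids plus stop, and silent codons where available) was expressed by lentivirus in FDX1-knockout ABC1 (14 days) or HEK293T (11 days) cells grown with elesclomol (ES) or DMSO control. Variant abundance came from ORF sequencing. The log2 fold change (ES vs control, mean of duplicates) was centred on the silent-variant mean (0) and scaled to the nonsense-variant mean (1). Higher values mean greater viability under ES, i.e. loss of FDX1 function in cuproptosis.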

[1] = with ABC1 FDX1 KO, elesclomol 5 nM, 14 days
[2] = with HEK293T FDX1 KO, elesclomol 40 nM, 11 days
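Note: variant abundance is its share of total variant reads in each endpoint sample, from next-generation sequencing of the integrated ORF PCR-amplified out of genomic DNA.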

Row | Variant | scaled log2 fold change [1] | scaled log2 fold change [2]
1 | MAAAGGARLLRAASAVLGGPAGRWLHHAGSSAGSSGLLRNRGPGGSAEASRSLSVSARARSSSEDKITVHFINRDGETLTTKGKVGDSLLDVVVENNLDIDGFGACEGTLACSTCHLIFEDHIYEKLDAITDEENDMLDLAYGLTDRSRLGCQICLTKSMDNMTVRVPETVADARQSIDVGKTS [R31S] | 0.29 | 0.11
2 | MAAAGGARLLRAASAVLGGPAGRWLHHAGSFAGSSGLLRNRGPGGSAEASRSLSVSARARSSSEDKITVHFINRDGETLTTKGKVGDSLLDVVVENNLDIDGFGACEGTLACSTCHLIFEDHIYEKLDAITDEENDMLDLAYGLTDRSRLGCQICLTKSMDNMTVRVPETVADARQSIDVGKTS [R31F] | -0.116 | 0.357
3 | MAAAGGARLLRAASAVLGGPAGRWLHHAGSPAGSSGLLRNRGPGGSAEASRSLSVSARARSSSEDKITVHFINRDGETLTTKGKVGDSLLDVVVENNLDIDGFGACEGTLACSTCHLIFEDHIYEKLDAITDEENDMLDLAYGLTDRSRLGCQICLTKSMDNMTVRVPETVADARQSIDVGKTS [R31P] | 0.561 | -0.0123
4 | MAAAGGARLLRAASAVLGGPAGRWLHHAGSQAGSSGLLRNRGPGGSAEASRSLSVSARARSSSEDKITVHFINRDGETLTTKGKVGDSLLDVVVENNLDIDGFGACEGTLACSTCHLIFEDHIYEKLDAITDEENDMLDLAYGLTDRSRLGCQICLTKSMDNMTVRVPETVADARQSIDVGKTS [R31Q] | 0.031 | 0.166
5 | MAAAGGARLLRAASAVLGGPAGRWLHHAGSEAGSSGLLRNRGPGGSAEASRSLSVSARARSSSEDKITVHFINRDGETLTTKGKVGDSLLDVVVENNLDIDGFGACEGTLACSTCHLIFEDHIYEKLDAITDEENDMLDLAYGLTDRSRLGCQICLTKSMDNMTVRVPETVADARQSIDVGKTS [R31E] | -0.00724 | 
6 | MAAAGGARLLRAASAVLGGPAGRWLHHAGSMAGSSGLLRNRGPGGSAEASRSLSVSARARSSSEDKITVHFINRDGETLTTKGKVGDSLLDVVVENNLDIDGFGACEGTLACSTCHLIFEDHIYEKLDAITDEENDMLDLAYGLTDRSRLGCQICLTKSMDNMTVRVPETVADARQSIDVGKTS [R31M] | 0.66 | 
7 | MAAAGGARLLRAASAVLGGPAGRWLHHAGSAAGSSGLLRNRGPGGSAEASRSLSVSARARSSSEDKITVHFINRDGETLTTKGKVGDSLLDVVVENNLDIDGFGACEGTLACSTCHLIFEDHIYEKLDAITDEENDMLDLAYGLTDRSRLGCQICLTKSMDNMTVRVPETVADARQSIDVGKTS [R31A] | 0.317 | 
8 | MAAAGGARLLRAASAVLGGPAGRWLHHAGSHAGSSGLLRNRGPGGSAEASRSLSVSARARSSSEDKITVHFINRDGETLTTKGKVGDSLLDVVVENNLDIDGFGACEGTLACSTCHLIFEDHIYEKLDAITDEENDMLDLAYGLTDRSRLGCQICLTKSMDNMTVRVPETVADARQSIDVGKTS [R31H] | -0.603 | 
9 | MAAAGGARLLRAASAVLGGPAGRWLHHAGSGAGSSGLLRNRGPGGSAEASRSLSVSARARSSSEDKITVHFINRDGETLTTKGKVGDSLLDVVVENNLDIDGFGACEGTLACSTCHLIFEDHIYEKLDAITDEENDMLDLAYGLTDRSRLGCQICLTKSMDNMTVRVPETVADARQSIDVGKTS [R31G] | 0.358 | -0.248
10 | MAAAGGARLLRAASAVLGGPAGRWLHHAGSNAGSSGLLRNRGPGGSAEASRSLSVSARARSSSEDKITVHFINRDGETLTTKGKVGDSLLDVVVENNLDIDGFGACEGTLACSTCHLIFEDHIYEKLDAITDEENDMLDLAYGLTDRSRLGCQICLTKSMDNMTVRVPETVADARQSIDVGKTS [R31N] | -0.000941 | 
11 | MAAAGGARLLRAASAVLGGPAGRWLHHAGSIAGSSGLLRNRGPGGSAEASRSLSVSARARSSSEDKITVHFINRDGETLTTKGKVGDSLLDVVVENNLDIDGFGACEGTLACSTCHLIFEDHIYEKLDAITDEENDMLDLAYGLTDRSRLGCQICLTKSMDNMTVRVPETVADARQSIDVGKTS [R31I] | 0.762 | 
12 | MAAAGGARLLRAASAVLGGPAGRWLHHAGYRAGSSGLLRNRGPGGSAEASRSLSVSARARSSSEDKITVHFINRDGETLTTKGKVGDSLLDVVVENNLDIDGFGACEGTLACSTCHLIFEDHIYEKLDAITDEENDMLDLAYGLTDRSRLGCQICLTKSMDNMTVRVPETVADARQSIDVGKTS [S30Y] | -0.00883 | -0.262
13 | MAAAGGARLLRAASAVLGGPAGRWLHHAGQRAGSSGLLRNRGPGGSAEASRSLSVSARARSSSEDKITVHFINRDGETLTTKGKVGDSLLDVVVENNLDIDGFGACEGTLACSTCHLIFEDHIYEKLDAITDEENDMLDLAYGLTDRSRLGCQICLTKSMDNMTVRVPETVADARQSIDVGKTS [S30Q] | 0.345 | -0.23
14 | MAAAGGARLLRAASAVLGGPAGRWLHHAGRRAGSSGLLRNRGPGGSAEASRSLSVSARARSSSEDKITVHFINRDGETLTTKGKVGDSLLDVVVENNLDIDGFGACEGTLACSTCHLIFEDHIYEKLDAITDEENDMLDLAYGLTDRSRLGCQICLTKSMDNMTVRVPETVADARQSIDVGKTS [S30R] | 0.119 | 
15 | MAAAGGARLLRAASAVLGGPAGRWLHHAGKRAGSSGLLRNRGPGGSAEASRSLSVSARARSSSEDKITVHFINRDGETLTTKGKVGDSLLDVVVENNLDIDGFGACEGTLACSTCHLIFEDHIYEKLDAITDEENDMLDLAYGLTDRSRLGCQICLTKSMDNMTVRVPETVADARQSIDVGKTS [S30K] | 0.428 | -0.721
16 | MAAAGGARLLRAASAVLGGPAGRWLHHAGVRAGSSGLLRNRGPGGSAEASRSLSVSARARSSSEDKITVHFINRDGETLTTKGKVGDSLLDVVVENNLDIDGFGACEGTLACSTCHLIFEDHIYEKLDAITDEENDMLDLAYGLTDRSRLGCQICLTKSMDNMTVRVPETVADARQSIDVGKTS [S30V] | 0.222 | -0.701
17 | MAAAGGARLLRAASAVLGGPAGRWLHHAGNRAGSSGLLRNRGPGGSAEASRSLSVSARARSSSEDKITVHFINRDGETLTTKGKVGDSLLDVVVENNLDIDGFGACEGTLACSTCHLIFEDHIYEKLDAITDEENDMLDLAYGLTDRSRLGCQICLTKSMDNMTVRVPETVADARQSIDVGKTS [S30N] | 0.26 | -0.64
18 | MAAAGGARLLRAASAVLGGPAGRWLHHAGMRAGSSGLLRNRGPGGSAEASRSLSVSARARSSSEDKITVHFINRDGETLTTKGKVGDSLLDVVVENNLDIDGFGACEGTLACSTCHLIFEDHIYEKLDAITDEENDMLDLAYGLTDRSRLGCQICLTKSMDNMTVRVPETVADARQSIDVGKTS [S30M] | 0.423 | -0.121
19 | MAAAGGARLLRAASAVLGGPAGRWLHHAGLRAGSSGLLRNRGPGGSAEASRSLSVSARARSSSEDKITVHFINRDGETLTTKGKVGDSLLDVVVENNLDIDGFGACEGTLACSTCHLIFEDHIYEKLDAITDEENDMLDLAYGLTDRSRLGCQICLTKSMDNMTVRVPETVADARQSIDVGKTS [S30L] | 0.0325 | 
20 | MAAAGGARLLRAASAVLGGPAGRWLHHAGTRAGSSGLLRNRGPGGSAEASRSLSVSARARSSSEDKITVHFINRDGETLTTKGKVGDSLLDVVVENNLDIDGFGACEGTLACSTCHLIFEDHIYEKLDAITDEENDMLDLAYGLTDRSRLGCQICLTKSMDNMTVRVPETVADARQSIDVGKTS [S30T] | -0.784 | -0.554
